Measurements: article PMC6068138, “Identification of a 57S translation complex containing closed-loop factors and the 60S ribosome subunit” (Scientific Reports, 2018)
One block for each binder: values may come before it.

Assays:
Conditions in all cases: partners not purified
[1] = biological target: T1, eIF4E-Flag (mRNA cap binding protein) (Saccharomyces cerevisiae, UniProt P07260 1-213); experiment: co-IP + AUC; stoichiometric analysis: eIF4E-Flag purified material split and run at the same time by AU-FDS (GFP protein) and AU-A230 (total material); standards STM1-GFP and RPS4B-GFP; values relative to 100 mRNA bound by ribosomes; cells on glucose
T1 construct: bait of the one-step Flag pull down; also called eIF4-Flag; source: S. cerevisiae, expressed from plasmid YC801 (eIF4E-Flag URA3), in cell extract
T1 sequence (looked up): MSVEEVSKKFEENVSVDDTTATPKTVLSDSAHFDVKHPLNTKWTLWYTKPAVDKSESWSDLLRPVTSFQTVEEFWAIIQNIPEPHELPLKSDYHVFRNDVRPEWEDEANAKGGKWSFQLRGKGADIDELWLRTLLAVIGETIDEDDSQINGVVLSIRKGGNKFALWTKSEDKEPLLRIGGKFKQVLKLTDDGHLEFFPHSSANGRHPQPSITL

[2] = biological target: T2, Flag-PAB1 (poly(A)-binding protein) (Saccharomyces cerevisiae, UniProt P04147 1-577); experiment: co-IP + AUC; one-step Flag pull down of Flag-PAB1 from yeast cell extracts (cycloheximide added before lysis); Flag eluate analysed by AU-FDS for the GFP tagged protein, 20 °C, 15,000 rpm; cells on glucose, glucose depleted 10 min, glucose added back 1 min, or 30 °C to 46 °C 1 min
T2 construct: bait of the one-step Flag pull down; also called PAB1-Flag; source: S. cerevisiae, expressed from plasmid YC776 (Flag-PAB1 URA3), in cell extract
T2 sequence (looked up): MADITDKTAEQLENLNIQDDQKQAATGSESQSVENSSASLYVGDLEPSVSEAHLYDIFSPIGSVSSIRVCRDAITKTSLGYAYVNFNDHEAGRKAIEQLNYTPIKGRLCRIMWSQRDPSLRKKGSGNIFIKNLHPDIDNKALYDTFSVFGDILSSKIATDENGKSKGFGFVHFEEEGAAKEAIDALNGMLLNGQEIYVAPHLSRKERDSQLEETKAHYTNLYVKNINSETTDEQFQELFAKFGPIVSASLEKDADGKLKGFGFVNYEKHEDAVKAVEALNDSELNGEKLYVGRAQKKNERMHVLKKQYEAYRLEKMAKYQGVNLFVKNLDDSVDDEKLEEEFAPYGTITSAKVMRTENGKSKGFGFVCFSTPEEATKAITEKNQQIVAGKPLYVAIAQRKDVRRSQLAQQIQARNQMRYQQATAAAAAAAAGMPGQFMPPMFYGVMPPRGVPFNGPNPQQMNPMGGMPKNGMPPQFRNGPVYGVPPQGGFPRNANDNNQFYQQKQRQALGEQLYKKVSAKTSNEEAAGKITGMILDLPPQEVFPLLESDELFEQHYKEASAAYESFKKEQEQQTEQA

[3] = biological target: T2, Flag-PAB1 (poly(A)-binding protein); experiment: co-IP + AUC; stoichiometric analysis: Flag-PAB1 purified material split and run at the same time by AU-FDS (GFP protein) and AU-A230 (total material); standards STM1-GFP and RPS4B-GFP; values relative to 100 mRNA bound by ribosomes; cells on glucose, 30 °C to 46 °C 1 min, or glucose depleted 10 min and added back 1 min
[4] = biological target: T2, Flag-PAB1 (poly(A)-binding protein); experiment: as above; remark: listed apart in the source

abundance in the eIF4E-Flag 39S complex (Glc+) [1]: 42 ± 9.1 relative to 100 mRNA | abundance in the eIF4E-Flag 57S complex (Glc+) [1]: 26 ± 3.7 relative to 100 mRNA
B1: PAB1, GFP tagged (natural protein, Saccharomyces cerevisiae, UniProt P04147 1-577, looked up)
chain: MADITDKTAEQLENLNIQDDQKQAATGSESQSVENSSASLYVGDLEPSVSEAHLYDIFSPIGSVSSIRVCRDAITKTSLGYAYVNFNDHEAGRKAIEQLNYTPIKGRLCRIMWSQRDPSLRKKGSGNIFIKNLHPDIDNKALYDTFSVFGDILSSKIATDENGKSKGFGFVHFEEEGAAKEAIDALNGMLLNGQEIYVAPHLSRKERDSQLEETKAHYTNLYVKNINSETTDEQFQELFAKFGPIVSASLEKDADGKLKGFGFVNYEKHEDAVKAVEALNDSELNGEKLYVGRAQKKNERMHVLKKQYEAYRLEKMAKYQGVNLFVKNLDDSVDDEKLEEEFAPYGTITSAKVMRTENGKSKGFGFVCFSTPEEATKAITEKNQQIVAGKPLYVAIAQRKDVRRSQLAQQIQARNQMRYQQATAAAAAAAAGMPGQFMPPMFYGVMPPRGVPFNGPNPQQMNPMGGMPKNGMPPQFRNGPVYGVPPQGGFPRNANDNNQFYQQKQRQALGEQLYKKVSAKTSNEEAAGKITGMILDLPPQEVFPLLESDELFEQHYKEASAAYESFKKEQEQQTEQA
notes: source: S. cerevisiae strain carrying the GFP fusion, in cell extract

fold change of abundance in the 77S complex, glucose depleted 10 min against glucose [2]: 4 fold | fold change of association with the 77S complex, 46 °C 1 min against 30 °C [2]: 2 fold
B2: translation termination factor eRF1 (natural protein, Saccharomyces cerevisiae, UniProt P12385 1-437, looked up)
chain: MDNEVEKNIEIWKVKKLVQSLEKARGNGTSMISLVIPPKGQIPLYQKMLTDEYGTASNIKSRVNRLSVLSAITSTQQKLKLYNTLPKNGLVLYCGDIITEDGKEKKVTFDIEPYKPINTSLYLCDNKFHTEVLSELLQADDKFGFIVMDGQGTLFGSVSGNTRTVLHKFTVDLPKKHGRGGQSALRFARLREEKRHNYVRKVAEVAVQNFITNDKVNVKGLILAGSADFKTDLAKSELFDPRLACKVISIVDVSYGGENGFNQAIELSAEALANVKYVQEKKLLEAYFDEISQDTGKFCYGIDDTLKALDLGAVEKLIVFENLETIRYTFKDAEDNEVIKFAEPEAKDKSFAIDKATGQEMDVVSEEPLIEWLAANYKNFGATLEFITDKSSEGAQFVTGFGGIGAMLRYKVNFEQLVDESEDEYYDEDEGSDYDFI
notes: translation termination factor eRF1, Saccharomyces cerevisiae; source: S. cerevisiae, in cell extract

abundance in the Flag-PAB1 39S complex (30 °C to 46 °C 1 min) [3]: 20 ± 2.5 relative to 100 mRNA | abundance in the Flag-PAB1 39S complex (Glu + − 10 min + 1 min) [3]: 14 ± 3.8 relative to 100 mRNA | abundance in the Flag-PAB1 57S complex (30 °C to 46 °C 1 min) [3]: 21 ± 9.4 relative to 100 mRNA | abundance in the Flag-PAB1 57S complex (Glu + − 10 min +1 min) [3]: 5.1 ± 2.1 relative to 100 mRNA | abundance in the Flag-PAB1 39S complex (Glc+) [4]: 28 ± 9.5 relative to 100 mRNA | abundance in the Flag-PAB1 57S complex (Glc+) [4]: 14 ± 2.9 relative to 100 mRNA
B3: eIF4E, GFP tagged (natural protein, Saccharomyces cerevisiae, UniProt P07260 1-213, looked up)
chain: MSVEEVSKKFEENVSVDDTTATPKTVLSDSAHFDVKHPLNTKWTLWYTKPAVDKSESWSDLLRPVTSFQTVEEFWAIIQNIPEPHELPLKSDYHVFRNDVRPEWEDEANAKGGKWSFQLRGKGADIDELWLRTLLAVIGETIDEDDSQINGVVLSIRKGGNKFALWTKSEDKEPLLRIGGKFKQVLKLTDDGHLEFFPHSSANGRHPQPSITL
notes: as for B1
